Measured values published in the RNAGym collection of RNA variant scans (doi:10.1021/acssynbio.7b00057).

B1: Pistol ribozyme (parent)
chain: GGGUCGUUGUUCCAUAAUCGCGUGGAUAUGGCACGCAAGUUUCUACCGGGCACCGUAAAUGUCCGACUGGAGCCGUUCGGGCGGCUAUAAACAGACCUCAGGCCCGAAGCGUGGCGGCACCUGCCGCCGGUGGUAAAAAAGAUCGGAAGAGCACACGUCU

Variants of: B1
Test: aptazyme ON/OFF ratio, guanine; higher = stronger switching; co-transcriptional cleavage with and without guanine

Variant	aptazyme ON/OFF ratio
U7G U8A G9C U10G C12A C13U	1.05
U7G U8A G9C U10G C12A C13G	1.03
U7G U8A G9C U10G C12A C13A	1.06
U7G U8A G9U U10A U11C	1.03
U7G U8A G9U U10A U11A	1.46
U7G U8A G9C U11C C13A	1.06
U7G U8A G9C U11C C13U	1.05
U7G U8A G9C U11C C13G	1.05
U7G U8A G9U U10A C12A C13A	1.04
U7G U8A G9U U10A C12A C13G	1.06
U7G U8A G9U U10A C12A C13U	1.06
U7G U8A G9C U10A U11A C12G C13G	1.01
U7G U8A G9C U10A U11A C12G C13A	1.04
U7G U8A G9C U10A U11A C12G C13U	1.02
U7G U8A G9U U10A U11A C12G C13A	1.05
U7G U8A G9U U10A U11A C12G C13U	1.06
U7G U8A G9U U10A U11A C12G C13G	1.09
U7G U8A G9C U10G U11G C13A	1.19
U7G U8A G9C U10G U11G C13U	1.27
U7G U8A G9C U10G U11G C13G	1.1
U7G U8A G9U U10A C12G	1.06
U7G U8A G9U U10A C12A	1.05
U7G U8A G9U U10A C12U	1.03
U7G U8A G9C U10G U11A C12U	1.02

Variant	aptazyme ON/OFF ratio
U7G U8A G9C U10G U11A C12G	1.06
U7G U8A G9C U10G U11A C12A	1
U7G U8A G9C U10C C12U C13U	1.01
U7G U8A G9C U10C C12U C13G	1.01
U7G U8A G9C U10C C12U C13A	1.04
U7G U8A G9C U10A U11G C12G C13U	1.04
U7G U8A G9C U10A U11G C12G C13G	1.03
U7G U8A G9C U10A U11G C12G C13A	1.05
U7G U8A G9C U10A U11C C12A C13U	1.03
U7G U8A G9C U10A U11C C12A C13A	1.04
U7G U8A G9C U10A U11C C12A C13G	1.01
U7G U8A G9C U11G C12U C13A	1.05
U7G U8A G9C U11G C12U C13U	1.19
U7G U8A G9C U11G C12U C13G	1.07
U7G U8A G9C C12G C13U	1.06
U7G U8A G9C C12G C13G	1.04
U7G U8A G9C C12G C13A	1.02
U7G U8A G9C U10G U11C C12U	1.05
U7G U8A G9C U10G U11C C12A	1.04
U7G U8A G9C U10G U11C C12G	1.04
U7G U8A G9U C13U	1.3
U7G U8A G9U C13G	1.06
U7G U8A G9U C13A	1.08
U7G U8A G9U C12G	1.1

Variant	aptazyme ON/OFF ratio
U7G U8A G9U C12A	1.06
U7G U8A G9U C12U	1.18
U7G U8A G9C U11G C12G C13G	1.03
U7G U8A G9C U11G C12G C13A	1.01
U7G U8A G9C U11G C12G C13U	1.03
U7G U8A G9C U10C U11A C12G C13G	1.05
U7G U8A G9C U10C U11A C12G C13A	1.03
U7G U8A G9C U10C U11A C12G C13U	1.09
U7G U8A G9C U10A U11G C12A	1.02
U7G U8A G9C U10A U11G C12U	1.03
U7G U8A G9C U10A U11G C12G	1.03
U7G U8A G9A U11G C12G C13U	1.1
U7G U8A G9A U11G C12G C13A	1.14
U7G U8A G9A U11G C12G C13G	1.14
U7G U8A G9C U10G U11A C12A C13U	1.03
U7G U8A G9C U10G U11A C12A C13A	1.04
U7G U8A G9C U10G U11A C12A C13G	0.999
U7G U8A G9C U11C	1.05
U7G U8A G9C U11G	1.04
U7G U8A G9C U11A	1.14
U7G U8A G9C U10C U11C C13G	1.01
U7G U8A G9C U10C U11C C13A	1.03
U7G U8A G9C U10C U11C C13U	1.03
U7G U8A G9C U11G C13G	1.04

Variant	aptazyme ON/OFF ratio
U7G U8A G9C U11G C13A	1.06
U7G U8A G9C U11G C13U	1.04
U7G U8A G9C U10G U11A C13G	1.02
U7G U8A G9C U10G U11A C13U	1.03
U7G U8A G9C U10G U11A C13A	1.05
U7G U8A G9C U10A U11G C12A C13U	1.04
U7G U8A G9C U10A U11G C12A C13A	1.05
U7G U8A G9C U10A U11G C12A C13G	1.05
U7G U8A G9U U10A U11C C12U C13G	1.07
U7G U8A G9U U10A U11C C12U C13U	1.01
U7G U8A G9U U10A U11C C12U C13A	1.07
U7G U8A G9C U10A C12G	1.01
U7G U8A G9C U10A C12A	1.03
U7G U8A G9C U10A C12U	1.03
U7G U8A G9C C13U	1.04
U7G U8A G9C C13A	1.04
U7G U8A G9C C13G	1.02
U7G U8A G9C U10A U11A C12U C13G	1.05
U7G U8A G9C U10A U11A C12U C13A	1.04
U7G U8A G9C U10A U11A C12U C13U	1.05
U7G U8A G9C U10A U11C C12G C13G	1.04
U7G U8A G9C U10A U11C C12G C13A	1.04
U7G U8A G9C U10A U11C C12G C13U	1.04
U7G U8A G9U C12A C13U	1.1

Variant	aptazyme ON/OFF ratio
U7G U8A G9U C12A C13G	1.05
U7G U8A G9U C12A C13A	1.1
U7G U8A G9C U10G U11G	1.14
U7G U8A G9C U10G U11A	1.04
U7G U8A G9C U10G U11C	1.03
U7G U8A G9C C12U C13G	1.06
U7G U8A G9C C12U C13A	1.06
U7G U8A G9C C12U C13U	1.03
U7G U8A G9C U10G U11C C12A C13U	1.05
U7G U8A G9C U10G U11C C12A C13A	1.07
U7G U8A G9C U10G U11C C12A C13G	1.02
U7G U8A G9C U10C C12G	1.07
U7G U8A G9C U10C C12A	1.02
U7G U8A G9C U10C C12U	1.06
U7G U8A G9C U10A C12G C13G	1.06
U7G U8A G9C U10A C12G C13U	1.03
U7G U8A G9C U10A C12G C13A	1.04
U7G U8A G9C U11A C12A C13U	1.04
U7G U8A G9C U11A C12A C13A	1.01
U7G U8A G9C U11A C12A C13G	1.05
U7G U8A G9C U10C U11A C13G	1.06
U7G U8A G9C U10C U11A C13U	1.1
U7G U8A G9C U10C U11A C13A	1.1
U7G U8A G9C U10C U11C C12A C13U	1.03

Variant	aptazyme ON/OFF ratio
U7G U8A G9C U10C U11C C12A C13G	1
U7G U8A G9C U10C U11C C12A C13A	1.05
U7G U8A G9C U10A U11C C12U C13A	1.03
U7G U8A G9C U10A U11C C12U C13U	1.04
U7G U8A G9C U10A U11C C12U C13G	1.06
U7G U8A G9U U10A U11A C13U	1.07
U7G U8A G9U U10A U11A C13G	1.02
U7G U8A G9U U10A U11A C13A	1.13
U7G U8A G9U C12G C13U	1.17
U7G U8A G9U C12G C13A	1.11
U7G U8A G9U C12G C13G	1.07
U7G U8A G9C C12A C13U	0.986
U7G U8A G9C C12A C13A	1.04
U7G U8A G9C C12A C13G	1.03
U7G U8A G9U U10A U11C C12A C13A	1.1
U7G U8A G9U U10A U11C C12A C13U	1.05
U7G U8A G9U U10A U11C C12A C13G	1.02
U7G U8A G9U U10A U11C C12G C13G	1.05
U7G U8A G9U U10A U11C C12G C13U	1.05
U7G U8A G9U U10A U11C C12G C13A	1.06
U7G U8A G9A U11G C12U C13A	1.22
U7G U8A G9A U11G C12U C13U	1.45
U7G U8A G9A U11G C12U C13G	1.2
U7G U8A G9C U10C U11G C12A	1.08

Variant	aptazyme ON/OFF ratio
U7G U8A G9C U10C U11G C12U	1.12
U7G U8A G9C U10C U11G C12G	1.03
U7G U8A G9C U10A U11A C12U	1.03
U7G U8A G9C U10A U11A C12G	1.03
U7G U8A G9C U10A U11A C12A	1.03
U7G U8A G9C U10C U11C C12U C13A	1.02
U7G U8A G9C U10C U11C C12U C13G	1.04
U7G U8A G9C U10C U11C C12U C13U	1.01
U7G U8A G9C U10C C13A	1.01
U7G U8A G9C U10C C13G	1.01
U7G U8A G9C U10C C13U	1.04
U7G U8A G9C U10C	2.1
U7G U8A G9C U10G	1.1
U7G U8A G9C U10A	1.07
U7G U8A G9C U11C C12G	1.05
U7G U8A G9C U11C C12U	1.11
U7G U8A G9C U11C C12A	1.11
U7G U8A G9C U10C U11A C12U C13A	1.02
U7G U8A G9C U10C U11A C12U C13G	1.04
U7G U8A G9C U10C U11A C12U C13U	1.03
U7G U8A G9C U11A C13U	1.04
U7G U8A G9C U11A C13G	1.02
U7G U8A G9C U11A C13A	1.05
